Assay results as given in patent US20150218285A1 (TORAY INDUSTRIES, published 2015).
Substitutions are numbered along the chain they refer to.

T1: CAPRIN-1 protein on the cell surface of human cancer cells (human, UniProt Q14444 2-709)
T1 construct: whole, on cells; endogenous protein of human cancer cell lines
T1 sequence (looked up): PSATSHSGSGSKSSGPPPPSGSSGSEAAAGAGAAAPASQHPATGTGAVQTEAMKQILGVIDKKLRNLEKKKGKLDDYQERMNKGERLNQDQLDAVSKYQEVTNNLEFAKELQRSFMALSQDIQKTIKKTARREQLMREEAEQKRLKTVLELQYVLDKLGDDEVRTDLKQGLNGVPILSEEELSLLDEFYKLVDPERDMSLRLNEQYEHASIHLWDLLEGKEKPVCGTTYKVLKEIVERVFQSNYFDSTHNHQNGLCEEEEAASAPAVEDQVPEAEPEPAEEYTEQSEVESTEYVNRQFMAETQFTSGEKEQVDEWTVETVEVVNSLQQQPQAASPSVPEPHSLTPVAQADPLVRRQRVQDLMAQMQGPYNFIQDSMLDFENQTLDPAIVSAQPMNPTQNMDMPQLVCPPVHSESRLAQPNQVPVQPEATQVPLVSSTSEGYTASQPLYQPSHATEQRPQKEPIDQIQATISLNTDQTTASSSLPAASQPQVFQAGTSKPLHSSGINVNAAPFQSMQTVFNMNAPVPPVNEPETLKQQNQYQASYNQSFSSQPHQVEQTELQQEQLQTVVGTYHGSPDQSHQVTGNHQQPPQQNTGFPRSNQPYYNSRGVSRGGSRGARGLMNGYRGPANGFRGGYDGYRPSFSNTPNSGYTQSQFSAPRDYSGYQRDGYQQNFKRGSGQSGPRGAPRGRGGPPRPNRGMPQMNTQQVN

B1: mouse monoclonal antibody #6 (antibody)
chain 1: DAELVKPGASVKISCKASGYTFTDHSIHWVQQKPEQGLEWIGYISPGNGNIKYNEKFKGKATLTADKSSSTAYMQLNSLTSEDSAVYFCKRSLGRGGPYYFDYWGQGTTVTVSS
chain 2: DIVLTQAAPSLPVTPGESVSISCRSSKSLLHSNGNTYLYWFLQRPGQSPQLLIYRMSNLASGVPDRFSGSGSGTAFTLRISRVEAEDVGVYYCMQHREYPVTFGSGPN
B2: mouse-chicken chimeric antibody #1 (antibody, mouse IgG1, V domains shown)
VH: AVTLDESGGGLQMSRGGLSLVCKASGFDFSSYQMNWIRQAPGKGLEFVAAINKFGNSTGHGAAVKGRVTISRDNGQSTVRLQLNNLRAEDTAIYFCTKHAYGYCGSGTWCAAGEIDAWGHGTEVIVSS
VL: QAASTQPSSVSANPGETVEITCSGGGSYSYGWFQQKSPGSAPVTVIYYNNKRPSDIPSRFSGSKSGSTGTLTITGVQADDEAVYYCGSGDSTDTAVFGAGTTLTVLG
B3: mouse monoclonal antibody #8 (antibody, V domains shown)
VH: GGGLVKPGGSLKLSCAASGFAFSSYDMSWIRQTPEKRLEWVAYISSGAGSTYYPDTVKGRFTVSRDNAKNTLYLQMSSLKSEDTAMYYCARHFYRFDYWGQGTTVTVSS
VL: SIVMTQTPKFLLVSAGDRITITCKASQSVSNDVAWYQQKPGQSPKLLIYYASNRYTGVPDRFTGSGYGTDFTFTISTVQAEDLAVYFCQQDDRFPLTFGAGPS
notes: mouse hybridoma antibody; also called anti-CAPRIN-1 monoclonal antibody #8
B4: mouse-chicken chimeric antibody #3 (antibody, mouse IgG1, V domains shown)
VH: AVTLDESGGGLQTPGGALSLVCKASGFTFSGYDMLWVRQAPGKGLEWVAGIGSTGGGTDYGAAVKGRATISRDNGQSTVRLQLNNLRAEDTATYYCAKVAGGCNSGYCRDSPGSIDAWGHGTEVIVS
VL: AVTQQPASVSANPGETVKITCSGGGSRNYYGWYQQKSPGSVPVTVIYYDDQRPSNIPSRFSGALSGSTSTLTITGVQADDEAVYFCGSADSNTYEGSFGAGTTLTVL
B5: mouse-chicken chimeric antibody #2 (antibody, mouse IgG1, V domains shown)
VH: AVTLDESGGGLQTPGGGLSLVCKASGFTFSSFDMGWVRQAPGKGLEFVAQINDAGSRTWYATAVKGRATISRDNGQTTVRLQLNNLRAEDTGTYYCTRGSGYVGAGAIDAWGHGTEVIVS
VL: AALTQPSSVSANPGETVKITCSGGSGYYGWYQQQKSPGSAPVTVIYQNDKRPSDIPSRFSGSGSGSTNTLTITGVQAEDEAVYFCGRYDSTDSGIFGAGTTLTVL
B6: human-mouse chimeric anti-CAPRIN-1 antibody #34 (antibody, human IgG1, kappa, V domains shown)
VH: GAELVRPGTSVKVSCKASVYAFTNYLIEWVKQRPGQGLEWIGVINPKSGGTKYNEKFRGKATLTADKSSSTAYMQLSSLTSGDSAVYFCAITGTDYWGQGTTLTVSS
VL: QGTRCDIQMTQTTSSLSASLGDRVTISCSASQGINNYLNWYQQKPDGTVKLLIYYTSSLRSGVPSRFSGSGSGTDYSLTISNLEPEDVATYYCQQYSKLPRTFGGGTKLEIKR
B7: human-mouse chimeric anti-CAPRIN-1 antibody #28 (antibody, human IgG1, kappa, V domains shown)
VH: GPDLVKPGASVKISCKASGYSFTAYYMHWVKQSHGKSLEWIGRVNPNNGGTTYNQKFKGKAILTVDKSSSTAYMELRSLTFEDSAVYYCARRIYYGYFDYWGQGTTVTVSS
VL: AFFAVSLGQRATISCKASQSVDYDGDSYMNWYQQKPGQPPKLLIYVASNLESGVPARFSGSGSGTDFTLNIHPVEEEDAATYYCQQSNEDPYTFGGGTKLEIKQ
B8: human-chicken chimeric antibody #2 (antibody, human IgG1, kappa, V domains shown)
VH: AVTLDESGGGLQTPGGGLSLVCKASGFTFSSFDMGWVRQAPGKGLEFVAQINDAGSRTWYATAVKGRATISRDNGQTTVRLQLNNLRAEDTGTYYCTRGSGYVGAGAIDAWGHGTEVIVSA
VL: AALTQPSSVSANPGETVKITCSGGSGYYGWYQQQKSPGSAPVTVIYQNDKRPSDIPSRFSGSGSGSTNTLTITGVQAEDEAVYFCGRYDSTDSGIFGAGTTLTVLT
B9: human-mouse chimeric anti-CAPRIN-1 antibody #29 (antibody, human IgG1, kappa)
heavy: not shown
light: GTCGDIVMSQSPSSLAVSAGEKVTMSCKSSQSLLNSRTRKNYLAWVQHKPGQSPRLLIYWASTRESGVPDRFTGSGSGTDFTLTISSVQAEDLAVYYCRQSYNLVTFGAGPSTVAAPSVFIFPPSDEQLKSGTASVVCLLNNFYPREAKVQWKVDNALQSGNSQESVTEQDSKDSTYSLSSTLTLSKADYEKHKVYACEVTHQGLSSPVTKSFNRGEC
B10: human-mouse chimeric anti-CAPRIN-1 antibody #30 (antibody)
heavy: not shown
light: DVQITQSPSYLAASPGETITINCRASKSISKYLAWYQEKPGKTNKLLIYSGSTLQSGIPSRFSGSGSGTDFTLTISSLEPEDFAMYYCQQHNEYPYTFGGGTKLEIKRTVAAPSVFIFPPSDEQLKSGTASVVCLLNNFYPREAKVQWKVDNALQSGNSQESVTEQDSKDSTYSLSSTLTLSKADYEKHKVYACEVTHQGLSSPVTKSFNRGEC
B11: human-mouse chimeric anti-CAPRIN-1 antibody #31 (antibody, human IgG1, kappa)
heavy: not shown
light: B10 light with Y96W
B12: human-mouse chimeric anti-CAPRIN-1 antibody #36 (antibody, human IgG1, kappa)
heavy: not shown
light: QDELSNPVTSGESVSISCRSSKSLLYKDGKTYLNWFLQRPGQSPQLLIYLMSTRASGVSDRFSGSGSGTDFTLEISRVKAEDVGVYYCQQLVEDPLTFGAGTKLELKRTVAAPSVFIFPPSDEQLKSGTASVVCLLNNFYPREAKVQWKVDNALQSGNSQESVTEQDSKDSTYSLSSTLTLSKADYEKHKVYACEVTHQGLSSPVTKSFNRGEC
B13: human-mouse chimeric anti-CAPRIN-1 antibody #26 (antibody, human IgG1, kappa)
heavy: not shown
light: PASSSDVLMTQTPLSLPVRLGDQSSISCRSSQSIVHSNGNTYLEWYLQKPGQSPKLLIYKVSNRFSGVPDRFSGSGSGTDFTLKISRVEPEDLGVYYCFQGSHVPYTSEGDQAEIKLATVAAPSVFIFPPSDEQLKSGTASVVCLLNNFYPREAKVQWKVDNALQSGNSQESVTEQDSKDSTYSLSSTLTLSKADYEKHKVYACEVTHQGLSSPVTKSFNRGEC
B14: human-mouse chimeric anti-CAPRIN-1 antibody #25 (antibody, human IgG1, kappa, V domains shown)
VH: GPGLVQPSQSLSITCTVSGFSLTTYDLHWVRQSPGKGLEWLGVIWSGGSTDYNAAFISRLSISKDNSKSQVFFKMNSLQANDTAIYYCARNYGYSAWFAYWGQGTLVTVSA
VL: DVLMTQTPLSLPVSLGDQASISCRSSQSIVHSNGNTYLEWYLQKPGQSPKLLIYKVSNRFSGVPDRFSGSGSGTDFTLKISRVEAEDLGVYYCFQGSHVPLTFGAGTKLELKR
B15: human-mouse chimeric anti-CAPRIN-1 antibody #27 (antibody, human IgG1, kappa, V domains shown)
VH: GGGLVQPGGSMRLSCVASGFTFSNSWFNWVRQSPEKGLEWVAEIRLTSDNYAIYYAESVKGRFTISRDDSKSSVYLQMNNLRAEDTGIYYCTRPETARATFAYWGQGTTVTVSS
VL: B14 VL with L51V, S57F, L101R, A105G, E110N, L111Q, K112T, R113G
B16: human-mouse chimeric anti-CAPRIN-1 antibody #23 (antibody, human IgG1, kappa, V domains shown)
VH: GGGLVKPGGSLKLSCAASGFTFSSYGMSWVRQTPEKRLEWVATISSGGSYTYYPDSVKGRFTISRDNAKNTLYLQMSSLRSEDTAMYYCASLASYYFDYWGQGTTLTVSS
VL: GARCDVQMIQSPSSLSASLGDIVTMTCQASQGTSINLNWFQQKPGKAPKLLIYGASSLEDGVPSRFSGSCFGTDFTLTISSLEDEDMATYFCLQHSYLPPLTFGAGTKLELKR
B17: human-mouse chimeric anti-CAPRIN-1 antibody #24 (antibody, human IgG1, kappa, V domains shown)
VH: B16 VH
VL: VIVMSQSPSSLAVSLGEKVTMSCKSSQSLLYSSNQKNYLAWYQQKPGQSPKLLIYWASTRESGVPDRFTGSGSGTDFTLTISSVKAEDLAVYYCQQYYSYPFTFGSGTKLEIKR

target: T1, CAPRIN-1 protein on the cell surface of …; experiment: flow cytometry on Hep3B, HepG2, SK-Hep-1, SW480; culture supernatant; vs isotype control
Description: Subsequently, four liver cancer cell lines (Hep3 GB, HepG2, SK-Hep-1, and SW480), which were confirmed to express a CAPRIN-1 gene, were investigated for whether or not a CAPRIN-1 protein is expressed on the surfaces of these cells. 1×10⁶ cells of each cell line were centrifuged with a 1.5-mL micro centrifugation tube. To the cells was added the culture supernatant (100 μL) containing any of mouse monoclonal antibodies #1 to #22 against a CAPRIN-1 protein reacting to cancer cell surface produced in Example 4 and mouse-chicken chimeric antibodies #1 to #3 against a CAPRIN-1 protein produced in the above (2), followed by being left to stand on ice for 1 hour. After washing with PBS, the cells were suspended in a FITC-labeled goat anti-mouse IgG antibody (manufactured by Invitrogen Corporation) diluted by 500-fold with PBS containing 0.1% FBS, followed by being left to stand on ice for 1 hour. After washing with PBS, the fluorescence intensity was measured with FACS Calibur available from Becton, Dickinson and Company. Separately, as a control, the same procedure as in above was performed using an iso-type control antibody, instead of the culture supernatants containing the mouse monoclonal antibodies #1 to #22 against a CAPRIN-1 protein and the mouse-chicken chimeric antibodies #1 to #3. As a result, the fluorescence intensity in the cells to which any of the monoclonal antibodies #1 to #22 and the mouse-chicken chimeric antibodies #1 to #3 was added was 20% or more higher than that in the control in every case. Specifically, in the case of using mouse-chicken chimeric antibody #1, the fluorescence intensity was enhanced by 200% or more in both SK-Hep-1 and Hep3B. […] The rate of increase in the fluorescence intensity is represented by the rate of increase in the mean fluorescence intensity (MFI value) in each cell and is calculated by the following calculation formula: […]

| rate of increase in mean fluorescence intensity | Binder |
| --- | --- |
| ≥ 20% | B1 |
| ≥ 20% | B2 |
| ≥ 20% | B3 |
| ≥ 20% | B4 |
| ≥ 20% | B5 |

target: T1, CAPRIN-1 protein on the cell surface of …; experiment: cell-based or functional assay

| ADCC activity on Hep3B, HepG2, SK-Hep-1, SW480 | Binder | cytotoxicity (ADCC, 51Cr release, human NK cells) on Hep3B, HepG2, SK-Hep-1, SW480 | cytotoxicity (ADCC, 51Cr release) on SK-Hep-1 |
| --- | --- | --- | --- |
| – | B6 | ≥ 20% | – |
| – | B1 | – | ≥ 12% |
| ≥ 20% | B7 | – | – |
| – | B8 | – | ≥ 12% |
| ≥ 20% | B9 | – | – |
| – | B10 | ≥ 20% | – |
| – | B11 | ≥ 20% | – |
| – | B12 | ≥ 20% | – |
| ≥ 20% | B13 | – | – |
| – | B3 | – | ≥ 12% |
| ≥ 20% | B14 | – | – |
| ≥ 20% | B15 | – | – |
| ≥ 20% | B16 | – | – |
| ≥ 20% | B17 | – | – |
